# Patent publication US20190361034A1
# Legend:
# [1] = molecular target: MHC class II molecules on MHC class II-expressing Raji cells (human); test: cell-based or functional assay
# [2] = molecular target: MHC class II molecules on MHC class II-expressing Raji cells (human); test: BLI; immobilised sample, Raji cells in solution; FIG. 24
# [3] = molecular target: MHC class II molecules on MHC class II-expressing Raji cells (human); test: BLI; immobilised sample, Raji cells in solution; FIG. 23
Substance,Bioactivity (CCL4 release) [1],Bioactivity (binding) [2],Bioactivity (binding) [3]
"IMP321 Oxidation, 0.1% H2O2 at 37° C. (1 D = 1 day) (Fc fusion)",21%,,
"IMP321, Alkali pH 9.2 at 37° C. (1 D = 1 day) (Fc fusion)",17%,,
"IMP321, Acid pH 3.6 at RT (1 D = 1 day) (Fc fusion)",29%,,

# Next, values leading:
Bioactivity (CCL4 release) [1],Bioactivity (binding) [2],Bioactivity (binding) [3],Substance
7%,,,"IMP321, Acid pH 3.0 at RT (1 D = 1 day) (Fc fusion)"
73%,75%,,"IMP321, Light, 10 D = 10 days (Fc fusion)"
15%,,,"IMP321, Acid pH 3.1 at RT (1 D = 1 day) (Fc fusion)"
87%,,74%,"IMP321, Light, 5 D = 5 days (Fc fusion)"
10%,,,"IMP321 Oxidation, 1% H2O2 at 37° C. (1 D = 1 day) (Fc fusion)"
